The test deals with T1, human melanoma chondroitin sulfate proteoglycan (MCSP) (human, UniProt Q6UVK1 30-2322).
T1 construct: whole, on cells; also called HMW-MAA; high molecular weight-melanoma-associated antigen
In words: flow cytometry on A375 human melanoma cells; reference antibody of the comparison. The method, then: The purified, monomeric humanized antibody variants were tested for binding to the human HMW-MAA/MCSP antigen on the A375 human melanoma cell line, using a flow cytometry-based assay. 200,000 cells (in 180 μl FACS buffer (PBS containing 2% FCS and 5 mM EDTA) were transferred to 5 ml polystyrene tubes and 20 μl 10 fold concentrated anti-MCSP antibody (primary antibody) samples (1-5000 ng/ml final concentration) or PBS only were added. After gently mixing the samples, the tubes were incubated at 4° C. for 30 min in the dark. Subsequently, samples were washed twice with FACS buffer and pelleted at 300 g for 3 min. Supernatant was aspirated off and cells were taken up in 50 μl FACS buffer and 2 μl secondary antibody (anti-Fc-specific F(ab′)2-FITC fragments (Jackson Immuno Research Laboratories, USA)) was added and the tubes were incubated at 4° C. for 30 min. Samples were washed twice with FACS buffer and taken up in 500 μl of FACS buffer for analysis by Flow Cytometry. Binding was determined by plotting the geometric mean fluorescence against the antibody concentrations.
For orientation: A flow cytometer gives signals particle by particle.

T1 sequence (Q6UVK1 30-2322): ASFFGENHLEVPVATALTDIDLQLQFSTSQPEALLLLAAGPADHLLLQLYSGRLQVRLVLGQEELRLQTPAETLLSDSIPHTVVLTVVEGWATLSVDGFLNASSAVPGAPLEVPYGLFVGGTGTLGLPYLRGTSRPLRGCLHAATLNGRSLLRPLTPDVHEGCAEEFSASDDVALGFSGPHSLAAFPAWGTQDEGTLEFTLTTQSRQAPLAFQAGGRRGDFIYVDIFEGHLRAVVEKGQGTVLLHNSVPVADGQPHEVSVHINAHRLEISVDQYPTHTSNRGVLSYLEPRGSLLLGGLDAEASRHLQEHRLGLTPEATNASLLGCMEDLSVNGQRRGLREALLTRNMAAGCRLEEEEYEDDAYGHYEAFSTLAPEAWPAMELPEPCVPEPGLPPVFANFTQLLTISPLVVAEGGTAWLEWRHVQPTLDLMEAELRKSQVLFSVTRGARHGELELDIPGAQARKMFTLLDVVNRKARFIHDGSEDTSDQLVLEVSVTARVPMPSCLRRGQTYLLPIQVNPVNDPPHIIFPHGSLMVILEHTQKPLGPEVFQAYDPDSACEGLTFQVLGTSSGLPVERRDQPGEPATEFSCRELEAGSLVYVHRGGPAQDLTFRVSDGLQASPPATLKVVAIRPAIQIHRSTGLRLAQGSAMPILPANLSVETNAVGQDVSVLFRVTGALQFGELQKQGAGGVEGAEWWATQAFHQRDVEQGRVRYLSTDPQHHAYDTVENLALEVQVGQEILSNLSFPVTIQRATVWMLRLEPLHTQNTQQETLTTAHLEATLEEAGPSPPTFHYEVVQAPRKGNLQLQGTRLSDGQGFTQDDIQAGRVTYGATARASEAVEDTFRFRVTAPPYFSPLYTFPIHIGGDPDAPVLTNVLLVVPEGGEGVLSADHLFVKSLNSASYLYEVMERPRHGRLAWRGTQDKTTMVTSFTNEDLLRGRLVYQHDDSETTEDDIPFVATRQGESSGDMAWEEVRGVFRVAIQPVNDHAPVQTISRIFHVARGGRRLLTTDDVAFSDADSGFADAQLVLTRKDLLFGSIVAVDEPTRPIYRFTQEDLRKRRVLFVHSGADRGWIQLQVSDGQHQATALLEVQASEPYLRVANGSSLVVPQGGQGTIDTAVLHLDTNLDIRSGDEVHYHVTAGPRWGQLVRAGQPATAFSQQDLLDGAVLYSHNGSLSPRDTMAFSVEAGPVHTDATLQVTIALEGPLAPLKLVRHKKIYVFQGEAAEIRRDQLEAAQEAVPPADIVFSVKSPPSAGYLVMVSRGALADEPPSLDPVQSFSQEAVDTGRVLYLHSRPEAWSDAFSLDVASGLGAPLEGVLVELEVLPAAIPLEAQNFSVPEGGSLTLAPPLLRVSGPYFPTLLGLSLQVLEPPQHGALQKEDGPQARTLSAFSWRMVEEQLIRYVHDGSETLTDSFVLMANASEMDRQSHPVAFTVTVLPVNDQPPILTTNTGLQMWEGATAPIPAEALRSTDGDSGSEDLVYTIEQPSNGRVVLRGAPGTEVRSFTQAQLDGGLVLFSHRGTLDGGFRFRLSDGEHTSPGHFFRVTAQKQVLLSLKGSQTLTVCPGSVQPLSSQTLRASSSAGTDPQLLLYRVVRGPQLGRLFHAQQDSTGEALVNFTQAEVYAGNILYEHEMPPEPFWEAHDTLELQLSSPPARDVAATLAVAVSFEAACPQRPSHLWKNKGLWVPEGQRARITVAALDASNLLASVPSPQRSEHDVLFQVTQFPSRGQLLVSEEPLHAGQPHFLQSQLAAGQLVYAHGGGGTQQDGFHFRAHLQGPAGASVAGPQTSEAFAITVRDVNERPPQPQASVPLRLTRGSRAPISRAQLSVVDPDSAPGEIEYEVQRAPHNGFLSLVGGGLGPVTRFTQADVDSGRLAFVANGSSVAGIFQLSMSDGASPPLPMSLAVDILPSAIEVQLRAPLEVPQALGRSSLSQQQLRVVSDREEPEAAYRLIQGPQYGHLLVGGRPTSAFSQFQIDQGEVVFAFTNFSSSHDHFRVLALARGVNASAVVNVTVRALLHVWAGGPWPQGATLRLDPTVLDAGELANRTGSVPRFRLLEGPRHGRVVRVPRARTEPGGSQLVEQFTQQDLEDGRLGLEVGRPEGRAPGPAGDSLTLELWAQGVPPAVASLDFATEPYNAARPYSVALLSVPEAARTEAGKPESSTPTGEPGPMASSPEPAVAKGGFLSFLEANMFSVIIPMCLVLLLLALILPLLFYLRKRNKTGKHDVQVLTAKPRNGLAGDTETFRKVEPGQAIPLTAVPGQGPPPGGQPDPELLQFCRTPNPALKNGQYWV

B1: ch-225.28S antibody (murine 225.28S VH and VL with human constant regions) (antibody, V domains shown)
VH: QVKLQQSGGGLVQPGGSMKLSCVVSGFTFSNYWMNWVRQSPEKGLEWIAEIRLKSNNFGRYYAESVKGRFTISRDDSKSSAYLQMINLRAEDTGIYYCTSYGNYVGHYFDHWGQGTTVTVSS
VL: DIELTQSPKFMSTSVGDRVSVTCKASQNVDTNVAWYQQKPGQSPEPLLFSASYRYTGVPDRFTGSGSGTDFTLTISNVQSEDLAEYFCQQYNSYPLTFGGGTKLEIK
notes: also called mVH/mVL
On to B1, for which the binding result is “binds”.
